The results in this text go back to patent US20230295638.

Data set [1] addresses constitutive Corelet construct PPID::FUSn::GFP::FTH1, where PPID=PDZ (UniProt P02794).
For data set [2], the target named is constitutive Corelet construct PPID::FUSn::GFP::FTH1, where PPID=PTB (UniProt P02794).

“TAL1 C-terminally tagged with PDZ ligand”: in data set [1], the shikimate production result is “The case when all four enzymes are recruited through expression with PTB/PDZ tags (+) shows enhanced shikimate production compared to when certain enzymes are removed from the cluster through expression without fusion to PTB/PDZ tag (-)”.
As to “TKL1 C-terminally tagged with PTB ligand”, the shikimate production result in data set [2] is listed as “The case when all four enzymes are recruited through expression with PTB/PDZ tags (+) shows enhanced shikimate production compared to when certain enzymes are removed from the cluster through expression without fusion to PTB/PDZ tag (-)”.
